Laboratory results taken from paper PMC4923907.

Target: GG-SpaA E269A mutant, residues 35-302 (Lactobacillus rhamnosus GG (ATCC 53103))
Assay: SEC; size-exclusion chromatography of purified E269A protein, Sephacryl S-200 26/60, 20 mM Tris pH 7.5, 150 mM NaCl, 1 mM EDTA; two forms recovered, trimeric (E1) and monomeric (E2)

GG-SpaA E269A mutant, residues 35-302 (domain or fragment)
stoichiometry N: 3
